The values below come from patent publication US7494645B2, “Lipid phosphate phosphatases and uses thereof for treating neuronal diseases” (Charite Universitaetsmedzin-Berlin, priority 2002, dated 2009).

“Also recorded” adds a separate entry of the source.

The subject of one series is PRG-3 mRNA. In words: PRG-3 mRNA in situ hybridization after kainate administration in vivo. Details: species or system rat. The settings on record: 10 mg/kg i.p. The text has this: For hybridization, we used two antisense oligonucleotides which both gave essentially the same hybridization signal: 5′-GCAGAGGTCTGAATTCTAGTGTCTATCGTTATAGTTCCTTAACAGTGTGGG-3′ (SEQ ID NO. 37) and 5′-CATCCTTCTGTAGTAGCTTTCTGCCTCTGCCTCCACTTCTCTCT-3′ (SEQ ID NO. 38) complementary to rat PRG-3 sequence (SEQ ID NO. 23). The oligonucleotide was synthesized by Metabion (Munich, Germany). The specificity was confirmed by a BLAST GenBank search to rule out cross-hybridization with other genes. We used the protocol as previously described (Brauer et al., 2001, supra).
Six rats, weighing 200-300 g, were weight-paired (±10 g per pair). These animals received a single i.p. injection of kainic acid (10 mg/kg bodyweight; from Ocean Products Int., Canada) freshly dissolved in 0.9% saline. Behavior was then observed constantly for 24 hr via video time lapse recordings. […] Severity of seizures was scored for 4 h after kainate injection using the classification of Zhang et al. […] Nissl-positive undamaged neurons were counted in five coronal brain sections per animal (sections were chosen by unbiased sampling), and the mean number of cells per section were determined such that the value obtained for each rat represents an average total number of neurons counted per section (250 μm by 250 μm square in the middle of the CA1 region). […]

The subject of series [1] is N1E-115 mouse neuroblastoma cells. The experiment in a line: LPA induced neurite retraction and protection in transfected N1E-115 cells. The format is cell-based. The text has this:
The rat PRG-1 full length clone was amplified by Marathon PCR (Clontech, USA) from adult rat hippocampus RNA (SEQ ID No. 17). For transfection studies, the full length PRG-1 coding sequence was fused to EGFP (pEGFP-N1 vector Clontech, USA). The PRG-1^His/Lys exchange mutant at the catalytic histidine (His-252) was introduced in the same protein fusion vector by site specific mutagenesis (CAT to AAG).
(§1) N1E-115 mouse neuroblastoma cells (ATCC: CRL-2263) were routinely grown in DMEM medium supplemented with selenium-defined fetal bovine serum (10%). The cells were seeded on baked glass cover slides at a density of 10,000 cells/cm^2. The next day, cells were transfected with the cationic lipids procedure (FuGene6, Roche, Germany) and cultivated for 24 h. Serum-starvation was performed for 20 h in DMEM medium, followed by treatment with 10 μmol/l oleoyl-LPA or vehicle (0.9% sodium chloride) (K. Jalink et al (1993) Cell Growth Differ. 4:247-255). After 10 min, cells were fixed in 4% paraformaldehyde for 20 min at room temperature and further analysis processed as described above. Images were taken with a CCD camera on an Olympus BX-50 microscope. Quantification was performed with the Meta Morph analysis system (University Imaging, PA). For statistical analysis Statview II was used (Abacus, USA). The effects of transfection on cell viability were analysed by MTT assay and propidium iodide staining (Savaskan N. E. et al. (2002) FASEB J. 17:112-114).

The next series relates to entorhinal explants. The experiment in a line: LPA induced neurite retraction in entorhinal explants. The settings on record: 100 nmol/l LPA, 10 min. The format is cell-based, rat. As to the method: Entorhinal explants from E16 and P0 rat pups were obtained from timed-pregnant Wistar rats and were cultivated as described (N. E. Savaskan (2000) Eur. I. Neurosci 12:1024-1032). In brief, entorhinal cortex was carefully dissected from the hippocampal anlage and the meninges were removed. Explants were gently transferred with a fire-polished Pasteur pipette into 12-well plates and cultivated on baked glass cover slides coated with laminin and poly-L-lysin (25 μg/ml and 10 μg/ml, respectively) in culture medium containing selenium-defined fetal bovine serum [5%] (N. E. Savaskan et al (2000) FASEB J. e-published) (Neurobasal medium plus 25 μg/ml Penicillin/Streptomycin; B-27 supplement). After 24 h, culture medium was exchanged and cultivation was further performed in serum-free Neurobasalmedium for 20 h. Serum-starved explants were treated with 100 nmol/l oleoyl-LPA (5 mmol/l stock solution in ultra-filtrated water) for 10 min or with vehicle (0.9% NaCl) and then fixed in 4% paraformaldehyde for 20 min. For F-actin staining, fixed tissues were incubated with TRITC-phalloidin (0.1 μg/ml, Sigma, Germany) for 40 min, followed by incubation with HOECHST 33258 dye (1:20,000, Sigma, Germany) for 5 min at room temperature. […] Images were taken with a CCD camera on an Olympus BX-50 microscope and quantification was performed using the Meta Morph analysis system (Universal Imaging, PA). […]

For series [2], the system named is hyperphosphorylated tau protein. The experiment in a line: Tau hyperphosphorylation in neurons overexpressing PRG-1 (cell culture model). Type of series: cell-based. The text has this: Alzheimer's disease is characterized by intracellular neurofibrillary tangle formation formed by tau-based paired helical filaments (PHF) and by extracellular beta-amyloid plaques. The degree of Alzheimer dementia correlates well with the severity of PHF occurrence. These PHF are formed by hyperphosphorylated tau formation. […] To gain insights into the functional role of PRG-1 in Alzheimer's pathology we used an established cell culture model.

Series [3] relates to N1E-115 cells. In words: Cell viability of N1E-115 cells after transfection (MTT assay, propidium iodide staining). The format is cell-based, mouse. The settings on record: 48-72 h after transfection. As to the method: as §1
For orientation: Tetrazolium dyes change colour on reduction, which living cells bring about.

Series [4] has as its system N1E-115 cells. The experiment in a line: Ecto-phosphatase activity (extracellular LPA degradation) in transfected N1E-115 cells. The format is cell-based, mouse. As to the method: The assay procedures used were adapted from those described in Imai et al. (2000) J. Clin. Endocrinol. Metab 85:3370-3375 and Hooks S. B. et al. (2001) J. Biol. Chem. 276:4611-4621. Briefly, transfected cells were harvested after serum-free cultivation for 20 h by scraping in lysis buffer (containing 20 mmol/l HEPES pH 7.4, 1 mmol/l NaHCO3, 500 μmol/l DTT, 1 mmol/l EGTA) and sonicated with two strokes (Bandolin GM 70, Germany). After centrifugation at 800×g, the supernatant was diluted in lysis buffer and centrifuged at 100,000×g for 1 h. Alternatively, the supernatant was topped on a sucrose step gradient (50% and 5%) and centrifuged at 100,000×g for 1 h (Savaskan, N. E. et al. (2000) Eur. J. Neurosci. 12:1024-1032. The resulting pellet and interphase, respectively, were re-homogenized and centrifuged again at 100,000×g for 1 h. The crude membrane pellet was re-suspended in reaction buffer (50 mmol/l HEPES pH 7,5; 1 mmol/l EGTA) and protein concentration was determined spectroscopically by Bradford protein assay (Amersham, Germany). Assessment of LPA metabolism was performed with exogenous ^3H-oleoeyl-LPA (Perkin Elmer, Germany) measuring ^3H-oleoeyl-glycerol production. […] All fractions of dried plates were scintillation counted and compared with authentic standards (LPA, 1-monoolein, 1,2-monoolein, oleic acid). […]

Take `C=C(C)[C@H]1CN[C@H](C(=O)O)[C@H]1CC(=O)O` [kainic acid]: the “PRG-3 mRNA expression in hippocampus” value in the series with PRG-3 mRNA (five days after kainic acid application) is “comparable levels to the adult non-treated controls”; in the series with PRG-3 mRNA (six hours after kainic acid application) it was “rapid PRG-3 repression”.

Turning to “1- or 2-oleoyl-lysophosphatidic acid [LPA]”, the “LPA-induced growth cone collapse of N1E-115 cells” value in series [1] (eGFP-only transfected cells, 10 μmol/l LPA, 10 min) is “uniformly sensitive”. The “neurite retraction in embryonic entorhinal explants” value in the series with entorhinal explants (E16 explants (no PRG-1 expression), n=20) is “rapid neurite retraction”. In addition, the “neurite retraction in postnatal entorhinal explants” value in the series on entorhinal explants (P0 explants (express PRG-1), n=22) was “did not differ significantly from vehicle treated control cultures”.

B1: PRG-1: plasticity-related gene 1 protein, lipid phosphate phosphatase; rat full length clone expressed by transfection (protein)
chain: MQRAGSSGARGECDISGTGRLRLEQAARLGGRAVHTSPTGGLGARQVAGMSAKERPKGKVIKDSVTLLPCFYFVELPILASSVVSLYFLELTDVFKPVHSGFSCYDRSLSMPYIEPTQEAIPFLMLLSLAFAGPAITIMVGEGILYCCLSKRRNGAGLEPNINAGGCNFNSFLRRAVRFVGVHVVGLCSTALITDIIQLATGYQAPYFLTVCKPMYTSLEGSCKENSYIVEEICSGSDLTVINNGKKSFPSQHATLAAFAAVYVSMYFNSTLTDSSKLLKPLLVFTFIICGIICGLTRITQYKNHPVDVYCGFLIGGGIALYLGLYAVGNFLPSEDSMLQHRDALRSLTDLNQDPSRVLSAKNGSSGDGIAHTEGILNRNHRDASSLTNLKRANADVEIITPRSPMGKESMVTFSNTLPRANTPSVEDPVRRNASIHASMDSARSKQLLTQWKSKNESRKMSLQVMDSEPEGQSPPRSIEMRSSSEPSRVGVNGDHHVPGNQYLKIQPGTVPGCNNSMPAGPRVSIQSRPGSSQLVHIPEETQENISTSPKSSSARAKWLKAAEKTVACNRGNNQPRIMQVIAMSKQQGVLQSSPKNAEGSTVTCTGSIRYKTLTDHEPSGIVRVEAHPENNRPIIQIPSSTEGEGSGSWKWKAPEKSSLRQTYELNDLNRDSESCESLKDSFGSGDRKRKHIDSNEHHHHGITTIRVTPVEGSEIGSETLSVSSSRDSTLRRKGNIILIPERSNSPENTRNIFYKGTSPTRPYKD
For the molecule B1, in series [2] (PRG-1 overexpression, tau hyperphosphorylation induced with okadaic acid or LPA), the “hyperphosphorylated tau and PHF formation” value is reported as “significantly decrease”. Further, the hyperphosphorylated tau protein result in series [2] (neurons overexpressing PRG-1 vs control transfected cells) is on record as “significant reduction”. Besides, the “increase of LPA needed to overcome resistance against growth cone collapse” value in series [1] (PRG-1 overexpressing N1E-115 cells, LPA dose response) came to 10 fold. For the same molecule, the “protection against LPA-induced growth cone collapse / retraction of processes” value in series [1] (transfected N1E-115 cells, 10 μmol/l LPA) was “resistance of N1E-115 cells to LPA-induced growth cone collapse; also recorded: did not prevent CPA-induced retraction of processes”. In addition, in series [1] (transfected N1E-115 cells, phalloidin staining), the LPA-induced actin-polymerization entry is “prevented LPA-induced actin-polymerization”. For the same molecule, the cell viability result in the series on N1E-115 cells [3] is listed as “unaffected”. In the series on N1E-115 cells [4], the “increase in ecto-phosphatase activity compared to eGFP transfection alone” value came out at 5 fold.
